From publication PMC3098278 come the findings set out here.

Experiment in all cases: filter binding
The subject of series [1] is 80S ribosome, L11 H109F (Saccharomyces cerevisiae? (yeast)). To be noted: aminoacylated (N-acetyl-Phe); Nitrocellulose filter binding, 30 C, 35 min (A-site) or 40 min (P-site), poly(U)-primed ribosomes; buffer, salt and pH not given; errors are SD.
Series [2] relates to 80S ribosome, L11 114-116R (Saccharomyces cerevisiae? (yeast)). To be noted: aminoacylated (N-acetyl-Phe); Nitrocellulose filter binding, 30 C, 35 min (A-site) or 40 min (P-site), poly(U)-primed ribosomes; buffer, salt and pH not given; errors are SD.
In series [3] the test system is 80S ribosome, L11 H109E (Saccharomyces cerevisiae? (yeast)). The following applies: aminoacylated (N-acetyl-Phe); Nitrocellulose filter binding, 30 C, 35 min (A-site) or 40 min (P-site), poly(U)-primed ribosomes; buffer, salt and pH not given; errors are SD.
The subject of series [4] is 80S ribosome, wild-type L11 (Saccharomyces cerevisiae? (yeast)). To be noted: aminoacylated (N-acetyl-Phe); Nitrocellulose filter binding, 30 C, 35 min (A-site) or 40 min (P-site), poly(U)-primed ribosomes; buffer, salt and pH not given; errors are SD.
Series [5] has as its system 80S ribosome, L11 87-90R (Saccharomyces cerevisiae? (yeast)). The following applies: aminoacylated (N-acetyl-Phe); Nitrocellulose filter binding, 30 C, 35 min (A-site) or 40 min (P-site), poly(U)-primed ribosomes; buffer, salt and pH not given; errors are SD.
Series [6] relates to 80S ribosome, wild-type L11 ((yeast)). To be noted: poly(U), tRNAPhe in P-site, soluble factors; aminoacylated (Phe); Nitrocellulose filter binding, 30 C, 35 min (A-site) or 40 min (P-site), poly(U)-primed ribosomes; buffer, salt and pH not given; errors are SD.
Series [7] has as its system 80S ribosome, L11 H109E ((yeast)). To be noted: poly(U), tRNAPhe in P-site, soluble factors; aminoacylated (Phe); Nitrocellulose filter binding, 30 C, 35 min (A-site) or 40 min (P-site), poly(U)-primed ribosomes; buffer, salt and pH not given; errors are SD.

Consider Ac-Phe-tRNAPhe (P-site), for which the Kd (commonly the free concentration of one partner at which half of the binding sites on the other are occupied at equilibrium, for simple one-to-one binding) was determined as 99.2 nM in series [1]; 41 nM in series [2]; 42.8 nM in series [3]; 72.3 nM in series [4]; 122 nM in series [5].
In the case of Phe-tRNAPhe (A-site), the Kd in series [6] is 97.6 nM; in series [7] it was 176 nM.
